Key:
[1] = molecular target: tissue factor (TF) antigen (UniProt P13726); experiment: SPR (ProteOn XPR36), His-tagged Fab captured on anti-penta His, TF as analyte, 1:1 fit
[2] = molecular target: tissue factor (TF) antigen (UniProt P13726); experiment: SPR (ProteOn XPR36), His-tagged Fab captured on anti-penta His, TF as analyte; against wild-type D3H44 Fab
[3] = molecular target: tissue factor (TF) antigen (UniProt P13726); experiment: SPR (ProteOn XPR36): Fab captured via His tag on anti-penta-His, TF as analyte, 1:1 fit
[4] = molecular target: tissue factor (TF) antigen (UniProt P13726); experiment: SPR; log ratio against wild-type D3H44 Fab; estimated value
[5] = molecular target: tissue factor (TF) antigen (UniProt P13726); experiment: SPR; log ratio against wild-type D3H44 Fab
[6] = molecular target: tissue factor (TF) antigen (UniProt P13726); experiment: SPR (ProteOn XPR36): Fab captured via His tag on anti-penta-His, TF as analyte, 1:1 fit; estimated value, taken from the same Fab with another L chain tag
[7] = molecular target: tissue factor (TF) antigen (UniProt P13726); experiment: SPR, Fab captured on anti-penta-His surface, TF as analyte, 1:1 fit
[8] = molecular target: tissue factor (TF) antigen (UniProt P13726); experiment: SPR, Fab captured on anti-penta-His surface, TF as analyte, 1:1 fit; against wild-type D3H44 Fab
[9] = molecular target: tissue factor (TF) antigen (UniProt P13726); experiment: SPR (ProteOn XPR36), Fab captured by His tag on anti-penta-His surface, TF injected as analyte; against wild-type D3H44 Fab
[10] = molecular target: tissue factor (TF) antigen (UniProt P13726); experiment: SPR (ProteOn XPR36), Fab captured by His tag on anti-penta-His surface, TF injected as analyte, 1:1 fit

Chain of tissue factor (TF) antigen (P13726 33-251 limits assumed): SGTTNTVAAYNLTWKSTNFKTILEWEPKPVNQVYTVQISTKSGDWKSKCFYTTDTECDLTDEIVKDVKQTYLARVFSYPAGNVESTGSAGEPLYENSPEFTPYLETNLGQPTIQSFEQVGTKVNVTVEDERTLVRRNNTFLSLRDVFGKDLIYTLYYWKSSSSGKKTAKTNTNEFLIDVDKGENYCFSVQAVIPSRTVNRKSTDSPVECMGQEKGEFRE

Substance	Kd [7] [nM]	change in median KD compared to wild type, -(log(KD design)-log(KD wt)) [8]	change in median KD compared to wild type, -(log(KD design)-log(KD wt)) [9] [log]	Kd [10] [nM]	further results
D3H44 Fab heterodimer, H1 L124E_L143E_K145M / L1 Q124K_V133G_Q160K_S176R (H1L1 Fab of LCCA Set # 9248 and 9249)	–	–	–	–	Kd [1]: 0.28 nM; Change in median values of KD of h1|1 Fab heterodimer compared to wild type (-(log(KD design)-log(KD wt))) [2]: -0.26
D3H44 Fab heterodimer, H1 L124R_S186R / L1 Q124E_V133G_S176D_T178D_T180E (H1L1 Fab of LCCA Set # 9513)	–	–	–	–	Kd [1]: 0.26 nM; Change in median values of KD of h1|1 Fab heterodimer compared to wild type (-(log(KD design)-log(KD wt))) [2]: -0.21
D3H44 Fab heterodimer, H1 L143K_D146G / L1 Q124E_V133D (H1L1 Fab of LCCA Set # 9734)	–	–	–	–	Kd [1]: 0.26 nM; Change in median values of KD of h1|1 Fab heterodimer compared to wild type (-(log(KD design)-log(KD wt))) [2]: -0.22
D3H44 Fab heterodimer, H L143E_K145T_Q179E / L Q124R_T178R (H1L1 of LCCA sets 9679 and 9663)	–	–	–	–	Kd [3]: 0.27 nM; Change in KD with respect to wild type (-(log(KD design) - log(KD wt))) [4]: -0.23; Change in KD with respect to wild type (-(log(KD design) - log(KD wt))) [5]: -0.23; Kd [6]: 0.27 nM
D3H44 Fab heterodimer, H L143E_K145T_Q179E / L T178R (H1L1 of LCCA sets 9683 and 9684)	–	–	–	–	Kd [3]: 0.3 nM; Change in KD with respect to wild type (-(log(KD design) - log(KD wt))) [4]: -0.28; Change in KD with respect to wild type (-(log(KD design) - log(KD wt))) [5]: -0.28; Kd [6]: 0.3 nM
D3H44 H1L1 Fab heterodimer of LCCA Set # 9054 (H1 A139G_Q179K_V190A; L1 Q124E_L135W_Q160E_T180E)	0.14	0.05	–	–	–
D3H44 H1L1 Fab heterodimer of LCCA Set # 9098 (H1 L124A_Q179K; L1 Q124E_V133W_S176T_T178E_T180E)	0.17	-0.03	–	–	–
D3H44 H1L1 Fab heterodimer of LCCA Set # 9103 (H1 L124A_S186K, L1 Q124E_V133W_T180E)	–	–	0.02	0.15	–
D3H44 H1L1 Fab heterodimer of LCCA Set # 9111 (H1 L124E_A125S_H172R_K228D; L1 S121K_V133G_S176R)	0.13	0.09	–	–	–
D3H44 H1L1 Fab heterodimer of LCCA Set # 9116 (H1 L124E_A139W, L1 F116A_V133G_L135V_S176R)	–	–	-0.02	0.16	–
D3H44 H1L1 Fab heterodimer of LCCA Set # 9122 (H1 L124E_H172T, L1 V133G_S174R_S176R)	–	–	0.1	0.13	–
D3H44 H1L1 Fab heterodimer of LCCA Set # 9559 (H1 L124W_L143E_K145T_Q179E; L1 Q124K_V133A_S176T_T178R)	0.27	-0.24	–	–	–
D3H44 H1L1 Fab heterodimer of LCCA Set # 9575 (H1 L143D_K145T_Q179E, L1 T178R)	–	–	-0.25	0.28	–
D3H44 H1L1 Fab heterodimer of LCCA Set # 9740 (H1 L143R; L1 Q124E_V133E)	0.2	-0.09	–	–	–
D3H44 H1L1 Fab heterodimer of LCCA Set # 9742 (H1 L143R; L1 Q124E_V133E_Q160M)	0.25	-0.21	–	–	–
D3H44 H1L1 Fab heterodimer of LCCA Sets # 6054, 9338 and 9339 (H1 L124R, L1 V133G_S176D_T178D)	–	–	-0.18	0.24	–
D3H44 H1L1 Fab heterodimer of LCCA Sets # 9092, 9091 and 9090 (H1 L124A_L143F_Q179K, L1 Q124E_V133W_S176T_T178E_T180E)	–	–	-0.02	0.16	–
D3H44 H1L1 Fab heterodimer of LCCA Sets # 9486, 9487, 9488 and 9489 (H1 L124R_S186K, L1 V133G_S176D_T178E_T180E)	–	–	-0.17	0.23	–
D3H44 H1L1 Fab heterodimer of LCCA Sets # 9743 and 9744 (H1 L143R, L1 Q124E_V133E_S176L)	–	–	-0.25	0.28	–

From US11306156
